Data as given in patent US20040018172A1 (US Dept. of Health and Human Services, published 2004).
One block for each binder: values may come before it.

Assays:
[1] = target: T1, ^125I-IFN-α2b binding site on Daudi and WISH cells (human); test: displacement of ^125I-IFN-α2b from WISH cells (competitor: ^125I-IFN-α2b)
T1 chain 1: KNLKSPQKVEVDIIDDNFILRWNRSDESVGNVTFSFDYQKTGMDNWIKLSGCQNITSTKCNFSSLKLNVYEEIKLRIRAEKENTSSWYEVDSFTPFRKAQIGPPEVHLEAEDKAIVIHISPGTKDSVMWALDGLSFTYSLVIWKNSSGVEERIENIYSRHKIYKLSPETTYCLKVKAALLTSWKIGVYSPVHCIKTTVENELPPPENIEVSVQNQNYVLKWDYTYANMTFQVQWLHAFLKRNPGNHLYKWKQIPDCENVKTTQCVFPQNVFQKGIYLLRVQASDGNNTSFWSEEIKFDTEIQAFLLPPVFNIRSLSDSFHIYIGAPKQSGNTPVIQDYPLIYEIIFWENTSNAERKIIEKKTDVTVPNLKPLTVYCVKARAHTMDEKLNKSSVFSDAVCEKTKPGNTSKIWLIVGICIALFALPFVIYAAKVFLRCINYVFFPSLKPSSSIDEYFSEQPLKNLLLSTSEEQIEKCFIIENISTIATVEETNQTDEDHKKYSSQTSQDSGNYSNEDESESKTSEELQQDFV
T1 chain 2: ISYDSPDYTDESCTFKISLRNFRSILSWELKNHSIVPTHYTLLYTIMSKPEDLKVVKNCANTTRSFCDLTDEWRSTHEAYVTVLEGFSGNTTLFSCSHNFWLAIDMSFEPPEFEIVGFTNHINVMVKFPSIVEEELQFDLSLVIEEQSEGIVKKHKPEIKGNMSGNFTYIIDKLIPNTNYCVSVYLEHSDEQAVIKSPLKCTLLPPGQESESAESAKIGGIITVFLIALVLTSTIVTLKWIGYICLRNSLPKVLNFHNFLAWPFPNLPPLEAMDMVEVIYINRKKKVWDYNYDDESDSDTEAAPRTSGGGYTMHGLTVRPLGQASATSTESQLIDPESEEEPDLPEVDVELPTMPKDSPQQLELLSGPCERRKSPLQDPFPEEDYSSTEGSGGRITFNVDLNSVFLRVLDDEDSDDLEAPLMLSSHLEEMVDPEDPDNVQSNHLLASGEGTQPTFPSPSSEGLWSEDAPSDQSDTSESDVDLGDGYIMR

[2] = target: T1, ^125I-IFN-α2b binding site on Daudi and …; test: displacement of ^125I-IFN-α2b from Daudi cells (competitor: ^125I-IFN-α2b)

IC50 [1]: > 0.2 µg/mL | IC50 [2]: > 0.4 µg/mL
B1: HY-2: IFN-α21a(1-95)/IFN-α2c(96-166) (ligand)
chain: CDLPQTHSLGNRRALILLAQMGRISPFSCLKDRHDFGFPQEEFDGNQFQKAQAISVLHEMIQQTFNLFSTKDSSATWEQSLLEKFSTELNQQLNDLEACVIQGVGVTETPLMKEDSILAVRKYFQRITLYLKEKKYSPCAWEVVRAEIMRSFSLSTNLQESLRSKE
notes: Expressed from pQE30 in E. coli and purified on Ni-NTA, so an amino-terminal hexa-histidine tag may be present; also called AF085804

IC50 [1]: > 0.2 µg/mL | IC50 [2]: > 0.4 µg/mL
B2: IFN-α21a (ligand, human, UniProt P01568 24-189, looked up)
chain: CDLPQTHSLGNRRALILLAQMGRISPFSCLKDRHDFGFPQEEFDGNQFQKAQAISVLHEMIQQTFNLFSTKDSSATWEQSLLEKFSTELNQQLNDLEACVIQEVGVEETPLMNVDSILAVKKYFQRITLYLTEKKYSPCAWEVVRAEIMRSFSLSKIFQERLRRKE
notes: mature; Recombinant, made in E. coli from pQE30/A21 and purified on Ni-NTA, so an amino-terminal hexa-histidine tag may be present; also called interferon-α21a; IFNA21
